Results from patent US20090028788A1 (WASHINGTON UNIVERSITY IN ST LOUIS, published 2009).
Bridges are numbered along the chain shown (N, C = ends). Primed or numbered codes have the meaning given here. Where no end group is shown, it is not given here. [ ]: non-standard residue; d: D form. The star is where a group is joined. Cypate = CC1(C)C(/C=C/C=C/C=C/C=C2/N(CCC(=O)*)c3ccc4ccccc4c3C2(C)C)=[N+](CCC(=O)O)c2ccc3ccccc3c21; DOTA = O=C(O)CN1CCN(CC(=O)O)CCN(CC(=O)*)CCN(CC(=O)O)CC1; DTPA = O=C(O)CN(CCN(CC(=O)O)CC(=O)O)CCN(CC(=O)O)CC(=O)*; Cypate′ = NIR carbocyanine dye; Ahx = NCCCCCC(=O)O; βAla = NCCC(=O)O

B1: Cypate-Cyclo(Cys-Arg-Gly-Asp-Cys)-NH2 (peptide)
peptide: CRGDC
HELM: PEPTIDE1{[CC1(C)C(/C=C/C=C/C=C/C=C2/N(CCC(=O)[*:2])c3ccc4ccccc4c3C2(C)C)=[N+](CCC(=O)O)c2ccc3ccccc3c21].C.R.G.D.C.[am]}$PEPTIDE1,PEPTIDE1,2:R3-6:R3$$$V2.0
SMILES: CC1(C)C(/C=C/C=C/C=C/C=C2/N(CCC(=O)N[C@H]3CSSC[C@@H](C(N)=O)NC(=O)[C@H](CC(=O)O)NC(=O)CNC(=O)[C@H](CCCNC(=N)N)NC3=O)c3ccc4ccccc4c3C2(C)C)=[N+](CCC(=O)O)c2ccc3ccccc3c21
notes: also called Cypate-cyclo(CRGDC)-NH2
B2: Cypate-cyclo(CRGDSC)-NH2 (peptide)
peptide: CRGDSC
HELM: PEPTIDE1{[CC1(C)C(/C=C/C=C/C=C/C=C2/N(CCC(=O)[*:2])c3ccc4ccccc4c3C2(C)C)=[N+](CCC(=O)O)c2ccc3ccccc3c21].C.R.G.D.S.C.[am]}$PEPTIDE1,PEPTIDE1,2:R3-7:R3$$$V2.0
SMILES: CC1(C)C(/C=C/C=C/C=C/C=C2/N(CCC(=O)N[C@H]3CSSC[C@@H](C(N)=O)NC(=O)[C@H](CO)NC(=O)[C@H](CC(=O)O)NC(=O)CNC(=O)[C@H](CCCNC(=N)N)NC3=O)c3ccc4ccccc4c3C2(C)C)=[N+](CCC(=O)O)c2ccc3ccccc3c21
notes: also called Cypate-[Cyclo-(Cys-Arg-Gly-Asp-Ser-Cys)]1
B3: Cyclo(DPhe-Val-Lys-Arg-Gly-Asp)-OH (peptide)
peptide: XVKRGD
HELM: PEPTIDE1{[dF].V.K.R.G.D}$PEPTIDE1,PEPTIDE1,1:R1-6:R2$$$V2.0
SMILES: CC(C)[C@@H]1NC(=O)[C@@H](Cc2ccccc2)NC(=O)[C@H](CC(=O)O)NC(=O)CNC(=O)[C@H](CCCNC(=N)N)NC(=O)[C@H](CCCCN)NC1=O
B4: Cyclo(Arg-Gly-Asp-DPhe-Asp)-Lys-NH2 (peptide)
peptide: RGD[dF]DK-NH2
modifications: lactam N-5; also: cyclo Arg1-Asp5: which Asp5 carboxyl (side chain or α) closes ring not given here
B5: Cyclo(Arg-Gly-Asp-DPhe-Asp)-EAhx-Lys-OH (peptide)
peptide: RGD[dF]D[Ahx]K-OH
modifications: lactam N-5; also: cyclo Arg1-Asp5: which Asp5 carboxyl (side chain or α) closes ring not given here
B6: H-B-Ala-Asp-Cys-Arg-Gly-Asp-Cys(Et)-Phe-Val-OH (peptide)
peptide: H-[βAla]DCRGDC(Et)FV-OH
SMILES: CCSC[C@H](NC(=O)[C@H](CC(=O)O)NC(=O)CNC(=O)[C@H](CCCNC(=N)N)NC(=O)[C@H](CS)NC(=O)[C@H](CC(=O)O)NC(=O)CCN)C(=O)N[C@@H](Cc1ccccc1)C(=O)N[C@H](C(=O)O)C(C)C
B7: DTPA-His-Asp-Cys(Et)-Arg-Gly-Asp-Cys(Et)-Phe-Lys-OH (peptide)
peptide: {DTPA}-HDC(Et)RGDC(Et)FK-OH
SMILES: CCSC[C@H](NC(=O)[C@H](CC(=O)O)NC(=O)CNC(=O)[C@H](CCCNC(=N)N)NC(=O)[C@H](CSCC)NC(=O)[C@H](CC(=O)O)NC(=O)[C@H](Cc1c[nH]cn1)NC(=O)CN(CCN(CCN(CC(=O)O)CC(=O)O)CC(=O)O)CC(=O)O)C(=O)N[C@@H](Cc1ccccc1)C(=O)N[C@@H](CCCCN)C(=O)O
B8: DTPA-Val-Arg-Gly-Asp-DPhe-Cyclo(Cys-Tyr-DTrp-Lys-Thr-Cys)-Thr-NH2 (peptide)
peptide: VRGDXCYXKTCT
HELM: PEPTIDE1{[O=C(O)CN(CCN(CC(=O)O)CC(=O)O)CCN(CC(=O)O)CC(=O)[*:2]].V.R.G.D.[dF].C.Y.[dW].K.T.C.T.[am]}$PEPTIDE1,PEPTIDE1,7:R3-12:R3$$$V2.0
SMILES: CC(C)[C@H](NC(=O)CN(CCN(CCN(CC(=O)O)CC(=O)O)CC(=O)O)CC(=O)O)C(=O)N[C@@H](CCCNC(=N)N)C(=O)NCC(=O)N[C@@H](CC(=O)O)C(=O)N[C@H](Cc1ccccc1)C(=O)N[C@H]1CSSC[C@@H](C(=O)N[C@H](C(N)=O)[C@@H](C)O)NC(=O)[C@H]([C@@H](C)O)NC(=O)[C@H](CCCCN)NC(=O)[C@@H](Cc2c[nH]c3ccccc23)NC(=O)[C@H](Cc2ccc(O)cc2)NC1=O
B9: DTPA-DPhe-Cyclo(Cys-Tyr-DTrp-Lys-Thr-Cys)-Thr-Val-Arg-Gly-Asp-DPhe-NH2 (peptide)
peptide: XCYXKTCTVRGDX
HELM: PEPTIDE1{[O=C(O)CN(CCN(CC(=O)O)CC(=O)O)CCN(CC(=O)O)CC(=O)[*:2]].[dF].C.Y.[dW].K.T.C.T.V.R.G.D.[dF].[am]}$PEPTIDE1,PEPTIDE1,3:R3-8:R3$$$V2.0
SMILES: CC(C)[C@H](NC(=O)[C@@H](NC(=O)[C@@H]1CSSC[C@H](NC(=O)[C@@H](Cc2ccccc2)NC(=O)CN(CCN(CCN(CC(=O)O)CC(=O)O)CC(=O)O)CC(=O)O)C(=O)N[C@@H](Cc2ccc(O)cc2)C(=O)N[C@H](Cc2c[nH]c3ccccc23)C(=O)N[C@@H](CCCCN)C(=O)N[C@@H]([C@@H](C)O)C(=O)N1)[C@@H](C)O)C(=O)N[C@@H](CCCNC(=N)N)C(=O)NCC(=O)N[C@@H](CC(=O)O)C(=O)N[C@H](Cc1ccccc1)C(N)=O
B10: H-DPhe-Cyclo(Cys-Tyr-DTrp-Lys-Thr-Cys)-Thr-Val-Arg-Gly-Asp-NH2 (peptide)
peptide: XCYXKTCTVRGD
HELM: PEPTIDE1{[dF].C.Y.[dW].K.T.C.T.V.R.G.D.[am]}$PEPTIDE1,PEPTIDE1,2:R3-7:R3$$$V2.0
SMILES: CC(C)[C@H](NC(=O)[C@@H](NC(=O)[C@@H]1CSSC[C@H](NC(=O)[C@H](N)Cc2ccccc2)C(=O)N[C@@H](Cc2ccc(O)cc2)C(=O)N[C@H](Cc2c[nH]c3ccccc23)C(=O)N[C@@H](CCCCN)C(=O)N[C@@H]([C@@H](C)O)C(=O)N1)[C@@H](C)O)C(=O)N[C@@H](CCCNC(=N)N)C(=O)NCC(=O)N[C@@H](CC(=O)O)C(N)=O
B11: H-DPhe-Cyclo(Cys-Tyr-DTrp-Lys-Thr-Cys)-Thr-Val-Arg-Gly-Asp-DPhe-NH2 (peptide)
peptide: XCYXKTCTVRGDX
HELM: PEPTIDE1{[dF].C.Y.[dW].K.T.C.T.V.R.G.D.[dF].[am]}$PEPTIDE1,PEPTIDE1,2:R3-7:R3$$$V2.0
SMILES: CC(C)[C@H](NC(=O)[C@@H](NC(=O)[C@@H]1CSSC[C@H](NC(=O)[C@H](N)Cc2ccccc2)C(=O)N[C@@H](Cc2ccc(O)cc2)C(=O)N[C@H](Cc2c[nH]c3ccccc23)C(=O)N[C@@H](CCCCN)C(=O)N[C@@H]([C@@H](C)O)C(=O)N1)[C@@H](C)O)C(=O)N[C@@H](CCCNC(=N)N)C(=O)NCC(=O)N[C@@H](CC(=O)O)C(=O)N[C@H](Cc1ccccc1)C(N)=O
B12: H-Val-Arg-Gly-Asp-DPhe-Cyclo(Cys-Tyr-DTrp-Lys-Thr-Cys)-Thr-NH2 (peptide)
peptide: VRGDXCYXKTCT
HELM: PEPTIDE1{V.R.G.D.[dF].C.Y.[dW].K.T.C.T.[am]}$PEPTIDE1,PEPTIDE1,6:R3-11:R3$$$V2.0
SMILES: CC(C)[C@H](N)C(=O)N[C@@H](CCCNC(=N)N)C(=O)NCC(=O)N[C@@H](CC(=O)O)C(=O)N[C@H](Cc1ccccc1)C(=O)N[C@H]1CSSC[C@@H](C(=O)N[C@H](C(N)=O)[C@@H](C)O)NC(=O)[C@H]([C@@H](C)O)NC(=O)[C@H](CCCCN)NC(=O)[C@@H](Cc2c[nH]c3ccccc23)NC(=O)[C@H](Cc2ccc(O)cc2)NC1=O
B13: DOTA-Arg-Gly-Asp-Ser-Pro-Lys(Cypate)-NH2 (peptide)
peptide: {DOTA}-RGDSPK(Cypate)-NH2
SMILES: CC1(C)C(/C=C/C=C/C=C/C=C2/N(CCC(=O)NCCCC[C@H](NC(=O)[C@@H]3CCCN3C(=O)[C@H](CO)NC(=O)[C@H](CC(=O)O)NC(=O)CNC(=O)[C@H](CCCNC(=N)N)NC(=O)CN3CCN(CC(=O)O)CCN(CC(=O)O)CCN(CC(=O)O)CC3)C(N)=O)c3ccc4ccccc4c3C2(C)C)=[N+](CCC(=O)O)c2ccc3ccccc3c21
B14: Cypate-[Cyclo(Cys-Arg-Gly-Asp-Ser-Cys)-NH2]1-(D-Glucosamine) (peptide)
peptide: CRGDSC-NH2
modifications: disulfide 1-6; not fully specified (N-terminus); printed as Cypate-[Cyclo(Cys-Arg-Gly-Asp-Ser-Cys)-NH2]1-(D-Glucosamine); also: D-glucosamine attached to cypate

target: T1, purified human αvβ3 integrin protein (human, UniProt P06756 31-1048; P05106 27-788); test: competition with 125I-echistatin on purified human αvβ3 integrin, filter plate
T1 construct: Bought heterodimer; also called ABI; purified αvβ3 integrin
T1 sequence (P06756 31-1048, form in doubt, chain 1 of 2): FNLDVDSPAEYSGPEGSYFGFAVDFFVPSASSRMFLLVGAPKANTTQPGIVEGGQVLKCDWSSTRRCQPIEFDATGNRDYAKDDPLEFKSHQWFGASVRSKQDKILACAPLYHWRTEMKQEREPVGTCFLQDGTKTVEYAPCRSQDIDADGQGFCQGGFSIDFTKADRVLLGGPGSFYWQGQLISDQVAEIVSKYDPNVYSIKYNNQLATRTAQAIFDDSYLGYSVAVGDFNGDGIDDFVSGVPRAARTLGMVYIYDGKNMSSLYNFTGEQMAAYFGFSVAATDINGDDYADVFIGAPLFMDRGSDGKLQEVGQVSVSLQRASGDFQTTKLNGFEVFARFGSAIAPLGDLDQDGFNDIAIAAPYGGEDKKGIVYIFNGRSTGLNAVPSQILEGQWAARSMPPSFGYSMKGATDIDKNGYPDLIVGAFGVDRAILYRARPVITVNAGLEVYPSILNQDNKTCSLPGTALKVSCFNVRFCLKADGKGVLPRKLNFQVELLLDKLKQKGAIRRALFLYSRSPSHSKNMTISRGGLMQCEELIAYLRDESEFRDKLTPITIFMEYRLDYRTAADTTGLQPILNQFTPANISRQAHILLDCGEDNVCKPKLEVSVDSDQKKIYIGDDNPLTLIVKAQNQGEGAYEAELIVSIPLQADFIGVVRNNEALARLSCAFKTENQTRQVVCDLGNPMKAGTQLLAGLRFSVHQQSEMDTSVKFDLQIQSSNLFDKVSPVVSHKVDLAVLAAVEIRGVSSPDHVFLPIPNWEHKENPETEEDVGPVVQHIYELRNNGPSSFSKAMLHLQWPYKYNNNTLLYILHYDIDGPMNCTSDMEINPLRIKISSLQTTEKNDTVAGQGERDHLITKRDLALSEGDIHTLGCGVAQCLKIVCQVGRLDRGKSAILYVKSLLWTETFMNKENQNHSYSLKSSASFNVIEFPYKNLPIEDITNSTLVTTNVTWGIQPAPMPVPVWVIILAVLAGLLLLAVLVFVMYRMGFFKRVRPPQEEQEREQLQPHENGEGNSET
T1 sequence (P05106 27-788, form in doubt, chain 2 of 2): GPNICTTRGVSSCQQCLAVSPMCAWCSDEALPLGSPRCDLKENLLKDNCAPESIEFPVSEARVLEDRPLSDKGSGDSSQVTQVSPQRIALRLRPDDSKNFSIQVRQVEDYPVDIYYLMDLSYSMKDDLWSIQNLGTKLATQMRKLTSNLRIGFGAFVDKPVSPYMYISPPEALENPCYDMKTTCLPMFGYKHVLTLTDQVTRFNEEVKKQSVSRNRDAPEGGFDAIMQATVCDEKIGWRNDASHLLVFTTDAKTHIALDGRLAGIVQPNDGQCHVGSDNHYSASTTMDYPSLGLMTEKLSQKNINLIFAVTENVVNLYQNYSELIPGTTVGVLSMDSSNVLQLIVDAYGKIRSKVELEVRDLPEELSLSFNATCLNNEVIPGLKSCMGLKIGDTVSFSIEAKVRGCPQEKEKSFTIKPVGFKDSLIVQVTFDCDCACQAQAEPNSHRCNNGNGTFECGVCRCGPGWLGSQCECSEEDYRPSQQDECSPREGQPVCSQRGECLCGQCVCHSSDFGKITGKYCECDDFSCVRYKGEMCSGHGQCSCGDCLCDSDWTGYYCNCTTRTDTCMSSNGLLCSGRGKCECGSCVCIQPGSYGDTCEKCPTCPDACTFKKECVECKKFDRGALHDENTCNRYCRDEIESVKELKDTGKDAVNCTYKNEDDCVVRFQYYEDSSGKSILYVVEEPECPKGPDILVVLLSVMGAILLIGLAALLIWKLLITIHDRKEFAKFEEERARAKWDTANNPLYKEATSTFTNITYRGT
Protocol: (§1) The binding affinities were measured based on the competitive binding between purified αᵥβ₃ integrin (ABI) and peptide ligands.
(§2) Receptor binding assays were performed by using purified human αᵥβ₃ integrin protein from Chemicon International, Inc. (Temecula, Calif.). Assays were carried out using the Millipore Duropore membrane 96-well plates and the Millipore MultiScreen system (Bedford, Mass.). […] The concentration range of ligand was between 0.01 μM and 100 μM. The mixtures were incubated for 2 h at room temperature, the ABI was then filtered by centrifugation at 1500 g and washed three times with 0.20 mL of ice-cold binding buffer. The filters containing radioactivity bound ABI were removed using a punch apparatus and counted using a Packard Cobra II Auto-gamma counter (Meriden, Conn.). […] The 50% inhibitory concentrations (IC₅₀) were calculated by nonlinear regression analysis by use of the GraphPad Prism 4 computer fitting program (GraphPad Software, Inc., San Diego, Calif.).

Binder	IC50
B1	4.6 µM
B2	1.14 µM

target: T1, purified human αvβ3 integrin protein; test: as above; remark: another data set of the same source
Protocol: as §1, §2

Binder	IC50
B3	1.89 µM
B4	1.74 µM
B5	1.94 µM
{Cypate′}-KRGD[dF][Ahx]-NH2 [Cypate-Lys-Arg-Gly-Asp-DPhe-EAhx-NH2]	3.02 µM
{Cypate′}-[dF]CY[dW]KTCTVRGD-NH2 (disulfide 2-7) [Cypate-DPhe-Cyclo(Cys-Tyr-DTrp-Lys-Thr-Cys)-Thr-Val-Arg-Gly-Asp-NH2]	4.42 µM
{Cypate′}-[βAla]RGD[Ahx]RGD[Ahx]RGDSPK-OH [Cypate-BAla-Arg-Gly-Asp-EAhx-Arg-Gly-Asp-EAhx-Arg-Gly-Asp-Ser-Pro-Lys-OH]	0.0656 µM
H-HDRGDCFK-OH [H-His-Asp-Arg-Gly-Asp-Cys-Phe-Lys-OH]	0.411 µM
B6	0.329 µM
B7	0.712 µM
B8	0.584 µM
{DTPA}-[dF]CY[dW]KTCTVRGD-NH2 (disulfide 2-7) [DTPA-DPhe-Cyclo(Cys-Tyr-DTrp-Lys-Thr-Cys)-Thr-Val-Arg-Gly-Asp-NH2]	1.11 µM
B9	0.945 µM
B10	0.722 µM
B11	0.357 µM
B12	1.68 µM
{DTPA}-GRDSPK-OH [DTPA-Gly-Arg-Asp-Ser-Pro-Lys-OH]	0.849 µM
{DTPA}-GRGDSPK-OH [DTPA-Gly-Arg-Gly-Asp-Ser-Pro-Lys-OH]	0.353 µM
{DOTA}-RGDSPK-OH [DOTA-Arg-Gly-Asp-Ser-Pro-Lys-OH]	0.694 µM
B13	0.722 µM
H-RGDSPK(Cypate)-NH2 [H-Arg-Gly-Asp-Ser-Pro-Lys(Cypate)-NH2]	1 µM
{Cypate′}-[βAla]CRGDC[dF]V-NH2 (disulfide 2-6) [Cypate-BAla-Cyclo(Cys-Arg-Gly-Asp-Cys)-DPhe-Val-NH2]	0.000977 µM
Cypate-RGDS-NH2 (also: cypate also carries one D-glucosamine) [Cypate(Arg-Gly-Asp-Ser-NH2)1-(D-Glucosamine)]	1.94 µM
B14	0.275 µM
{Cypate′}-VRGD[dF]CY[dW]KTCT-OH (disulfide 6-11) [Cypate-Val-Arg-Gly-Asp-DPhe-Cyclo(Cys-Tyr-DTrp-Lys-Thr-Cys)-Thr-OH]	325 µM
{Cypate(3)}-GRDSPK-OH [Cypate(3)-Gly-Arg-Asp-Ser-Pro-Lys-OH]	2670 µM
{Cypate(2)}-GRDSPK-OH [Cypate(2)-Gly-Arg-Asp-Ser-Pro-Lys-OH]	266 µM
{DOTA}-GRDSPK-OH (also called DOTA-GRD) [DOTA-Gly-Arg-Asp-Ser-Pro-Lys-OH]	350 µM
